Assay results reported in paper PMC3725505.

Target: Kelch domain of human Keap1 (residues 321-609) (human), Q14145
Assay: ITC

Sequence of Kelch domain of human Keap1 (residues 321-609) (human), Q14145 (Q14145 321-609): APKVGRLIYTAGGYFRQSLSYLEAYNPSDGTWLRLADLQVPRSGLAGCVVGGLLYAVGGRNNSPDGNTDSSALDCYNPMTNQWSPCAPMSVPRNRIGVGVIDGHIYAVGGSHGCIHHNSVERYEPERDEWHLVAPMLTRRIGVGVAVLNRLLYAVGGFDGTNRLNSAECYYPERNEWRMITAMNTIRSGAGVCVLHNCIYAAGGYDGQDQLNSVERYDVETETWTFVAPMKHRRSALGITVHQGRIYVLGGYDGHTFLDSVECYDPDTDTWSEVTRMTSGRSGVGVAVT

Row | Binder | Kd | dH | stoichiometry N
1 | FAQLQLDPETGEFLPIQPAQ (modifications not checked) [NRF2 site 1 E78P peptide (20-mer)] | 0.007 µM | -16.8 kcal/mol | –
2 | ANGNANEENGEQEADNEVDE (modifications not checked) [PTMA isoform 2 peptide (20-mer)] | 2.62 µM | -17.3 kcal/mol | 1.05

Further lines, results first:

Row | Kd | dH | stoichiometry N | Binder
3 | 1.3 µM | – | – | LSSKEVDPSTGELQSLQMPE (modifications not checked) [p62 peptide (20-mer)]
4 | 11.6 µM | -14.7 kcal/mol | 1.07 | ANGNAENEENGEQEADNEVD (modifications not checked) [PTMA isoform 1 peptide (20-mer)]
5 | 0.023 µM | -17 kcal/mol | 1.08 | FAQLQLDEETGEFLPIQPAQ (modifications not checked) [NRF2 site 1 peptide (20-mer)]
